Measured values published in patent US11667697 (VANDERBILT UNIVERSITY, dated 2023).

Tests used:
[1] = molecular target: T1, VACV L1 protein (vaccinia virus, UniProt P07612 1-185); test: purified antigen ELISA
T1 sequence: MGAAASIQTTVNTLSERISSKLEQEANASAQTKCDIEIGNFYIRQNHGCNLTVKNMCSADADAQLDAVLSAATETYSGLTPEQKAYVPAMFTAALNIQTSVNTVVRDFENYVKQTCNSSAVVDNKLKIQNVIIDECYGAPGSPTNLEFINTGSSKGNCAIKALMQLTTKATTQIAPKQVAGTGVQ

[2] = molecular target: T1, VACV L1 protein; test: cell-based or functional assay
[3] = molecular target: T2, VACV B5 protein (vaccinia virus, UniProt Q01227 20-275); test: lysate ELISA
[4] = molecular target: T2, VACV B5 protein; test: purified antigen ELISA
[5] = molecular target: T2, VACV B5 protein; test: cell-based or functional assay
[6] = molecular target: T3, VACV A33 protein (vaccinia virus, UniProt P68617 58-185); test: lysate ELISA
[7] = molecular target: T3, VACV A33 protein; test: purified antigen ELISA
[8] = molecular target: T3, VACV A33 protein; test: cell-based or functional assay
[9] = molecular target: T4, VACV H3 protein (vaccinia virus, UniProt P07240 1-278); test: lysate ELISA
T4 sequence: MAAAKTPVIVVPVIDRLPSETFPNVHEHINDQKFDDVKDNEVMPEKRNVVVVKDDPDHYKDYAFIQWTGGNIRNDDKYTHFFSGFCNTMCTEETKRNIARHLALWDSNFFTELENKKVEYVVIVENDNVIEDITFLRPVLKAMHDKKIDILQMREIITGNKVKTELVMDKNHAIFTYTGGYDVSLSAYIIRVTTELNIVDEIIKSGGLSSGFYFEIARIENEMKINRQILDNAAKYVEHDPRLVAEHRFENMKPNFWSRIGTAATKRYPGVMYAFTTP

B1: VACV-33 (antibody, V domains shown)
VH: QLQLQESGPGLVKPSETLSLTCTVSGGSISSGGYYWGWIRQPPGKGLEWIASIYYSGSTYYNPSLKSRVTISVDTSKTQFSLKLSSVTAADTAVYYCARQSSSTGGFHYWGQGTLVTVSS
VL: QSVLTQPPSVSGAPGQRVTISCTGSSSNIGAGYDVHWYQHLPGTAPKLLIYGNSNRPSGVPDRFSGSKSGTSASLAITGLQAEDEANYYCQSYDSSLSGREVFGGGTQLTVL
notes: human IgG1, anti-L1
- EC50 [1]: 0.02 µg/mL
- PRNT Emax, VACV MV [2]: 56%
- PRNT Emax, VACV MV+C' [2]: 71%
- PRNT IC50, VACV MV [2]: 0.3 µg/mL
- PRNT IC50, VACV MV+C' [2]: 0.7 µg/mL

B2: VACV-34 (antibody, V domains shown)
VH: QVQLVESGGGLVQPGRSLRLSCAASGFTFDDYAMHWVRQAPGKGLEWVSGLSWNSGSIGYADSVKGRFTISRDNAKNSLYLQMNSLRAEDTALYYCAKETEKYYYDSSGYDYWGQGTLVTVSS
VL: EIVLTQSPGTLSLSPGERATLSCRASQSVSSIYLAWYQQKPGQAPRLLIYGASSRATGIPDRFSGSGSGTDFTLTISRLEPEDFAVYYCQQYGSRGTFGQGTKLEIK
notes: human IgG1, anti-L1
- EC50 [1]: 0.04 µg/mL
- PRNT Emax, VACV MV [2]: 76%
- PRNT Emax, VACV MV+C' [2]: 78%
- PRNT IC50, VACV MV [2]: 3.3 µg/mL
- PRNT IC50, VACV MV+C' [2]: 0.96 µg/mL

B3: MPXV-25 (antibody, V domains shown)
V domain 1: QVQLVESGGGVVQPGRSLKISCAASGFTFSDSGLHWVRQAPGKGLECVAFIWYDGSTKYYADSVKGRFTISRDNSRNTLYLQMKSLRAEDTAVYYCARELGYCSGGTCYSMGAFDIWGQGTLVTVSQ
V domain 2: QSVLTQPASVSGSPGQSITISCTGTSSDVGSYNLVSWYQQHPGKAPKLMIYEVSKRPSGVSNRFSGSKSDNTASLTISGLQAEDEADYYCCSYVGSSTSVFGGGTQVTVL
notes: human IgG1, anti-B5
- EC50 [3]: 0.066 µg/mL
- EC50 [4]: 0.19 µg/mL
- PRNT Emax, VACV EV+C' [5]: 77%
- PRNT IC50, VACV EV+C' [5]: 0.02 µg/mL

B4: VACV-22 (antibody, V domains shown)
VH: QVQLVESGGGVVQPGRSLRLSCAASGFTFSNSGMHWVRQAPGKGLEWVAVIWFDGTNKYYADSVKGRFTISRDNSKNTLYLQMNSLRAEDTAVYYCARVPCGGDCYSGYLQHWGQGTLVTVSS
VL: AIVMTQSPATLSVSPGERATLSCRASQSVSSTLAWYQQKPGQAPRLLIYGASTKATGIPARFSGSGSGTEFTLTISSLQSEDFAVYYCQHYNNWPPLLTFGGGTKVDIK
notes: human IgG1, anti-A33
- EC50 [6]: > 0.008 µg/mL
- EC50 [7]: 0.03 µg/mL
- PRNT Emax, VACV EV+C' [8]: 87%
- PRNT IC50, VACV EV+C' [8]: 9.7 µg/mL

B5: MPXV-51 (antibody, V domains shown)
VH: QLQLQESGPGLVKPSETLSLSCTVSGGSINSRTYYWGWIRQPPGKGPEWIGTVFHNVSTLYTSSLRSRVTISVDTSKNRFSLKLTSVTAADTAVYFCGRLTPRNLFRGTLVRWVDPWGQGILVTVSS
VL: EIVLAQSPGTLSLSPGERATLSCRASHNLNSNYLAWYQQKPGQAPRLLIYGASSRATGIPDRFTGSGSGTDFTLTISRLEPEDFAVYYCQQYAGSLTFGGGTKVDIK
notes: human IgG1, anti-A33
- EC50 [6]: 0.05 µg/mL
- EC50 [7]: 0.04 µg/mL
- PRNT Emax, VACV EV+C' [8]: 50%
- PRNT IC50, VACV EV+C' [8]: 0.1 µg/mL

B6: MPXV-56 (antibody, V domains shown)
VH: QVQLQQSGPGLVKPSQTLSLTCAISGDSVSSNSAAWIWIRQSPSRGLEWLGTTYYRSEWYSDYPASVKSRVTINADTSKNQFSLQLNSVTPEDTAVYYCARITVGYNSPHLRVTRGWLDPWGPGNP
VL: not shown
notes: human IgG2, anti-A33
- EC50 [6]: > 0.07 µg/mL
- EC50 [7]: 0.06 µg/mL
- PRNT Emax, VACV EV+C' [8]: 56%
- PRNT IC50, VACV EV+C' [8]: 0.16 µg/mL

B7: VACV-80 (antibody, V domains shown)
VH: EVQLVESGGGLVQPGESLKISCAATGFTFSSYWMHWVRQAPGKGLVWVSGINSDGSSTSYADSVKGRFTIARDNAKGTLYLQMNSLRAEDTAVYYCARVGAVRIAAAAPDYWGQGTLVTVSS
VL: not shown
notes: human IgG1, anti-A33
- EC50 [6]: > 69 µg/mL
- EC50 [7]: 0.065 µg/mL

B8: MPXV-76 (antibody, V domains shown)
VH: EVQLVESGGGLVKPGESLKISCAASGFSFNNAWMNWVRQAPGKGLEWVGRIKTHADGGTTDYAAPVTGRFTISRDDSKNTLSLQMSSLKTEDTAVYYCTTSFTFPRRIFAYWGQGTLV
VL: EIVLTQSPATLSLSPGERATLSCRASQSVSSYLAWYQQKPGQAPRLLIYDTSNRATGIPARFSGSGSGTDFTLTISSLEPEDLAVYYCQLRNSWPPTFGPGTKVDIK
notes: human IgG1, anti-H3
- EC50 [9]: 0.008 µg/mL
